This note sets out measurements from US20210253678A1 (CUREAB, published 2021).

For experiment [1], the target named is T1, GP73 (endogenous human GP73 on HEK 293, HuH7, JHH4 and DU145 cells and in human tissue sections).
T1 construct: One entry for all cell lines and tissues; also called GOLM1; GOLPH2
T1 antigen: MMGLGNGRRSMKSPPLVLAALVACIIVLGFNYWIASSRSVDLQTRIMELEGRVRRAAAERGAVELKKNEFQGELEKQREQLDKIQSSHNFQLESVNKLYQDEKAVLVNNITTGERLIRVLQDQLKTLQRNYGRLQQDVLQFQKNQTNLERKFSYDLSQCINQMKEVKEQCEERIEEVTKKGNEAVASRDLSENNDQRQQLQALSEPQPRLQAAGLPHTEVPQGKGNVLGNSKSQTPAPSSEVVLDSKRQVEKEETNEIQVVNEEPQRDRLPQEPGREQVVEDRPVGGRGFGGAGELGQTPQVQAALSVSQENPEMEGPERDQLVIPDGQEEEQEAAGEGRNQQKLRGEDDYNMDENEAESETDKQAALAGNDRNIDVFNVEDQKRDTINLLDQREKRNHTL
Put plainly: immunohistochemistry, paraffin section of hepatitis liver, anti-mouse secondary. The source says: FIG. 5 Immunohistochemical staining of tissues with the anti-rGOLPH antibody G2-2 and controls. Paraffin embedded tissues of A normal liver B hepatitis liver C and D hepatocellular carcinoma (HCC) were stained with murine G2-2 (mG2-2) (A,B,C) or anti-GP73 antibody M06A (Sigma) followed by secondary staining with an anti-mouse antibody and examined under a microscope by 40× magnification as described in Example 3.
Paraffin embedded tissues of normal liver, hepatitis liver, hepatocellular carcinoma (HCC), endometrium carcinoma, ovarian carcinoma, melanoma, small cell lung cancer and gastric cancer were stained with murine G2-2 (mG2-2) or mouse anti GOLPH (M06A Sigma) followed by secondary staining with an anti-mouse IgG. Nuclei were stained with hematoxylin (blue), cytoplasma was stained with hemalum-eosin.

Experiment [2] has as its target T2, human GP73 (GOLM1, GOLPH2) in Alexander (PLC/PRF/5) cells (human, UniProt Q8NBJ4 1-401).
T2 construct: Endogenous protein of the cell line; cells were fixed with paraformaldehyde and treated with saponin
T2 sequence: T1 antigen
Description: immunofluorescence on fixed, saponin treated Alexander cells. As to the method:
Alexander cells were grown on 4 chamber slides, fixed with 4% paraformaldehyde, treated with 0.2% Saponin and blocked with 10% bovine serum albumin. Cells were incubated for one hour with goat anti-GP73 (santa cruz sc-48010) and mG2-2 and washed. Bound antibodies were stained with anti goat Alexa Fluor 488 (abeam ab150129) and anti mouse Alexa Fluor 647 (abeam ab150115). Nuclei were treated with DAPI.

Experiment [3] deals with T1, GP73 (endogenous human GP73 on HEK 293, …). Put plainly: flow cytometry of antibody left on the surface of HuH7 cells (panel title) after loading at 4°C; detection with APC anti-human Fab. As for the experimental part: Cells were incubated with 10 ug/ml of G2-2 or G2-1 for one hour at 4° C. in PBS. Unbound G2-2 was washed away and cells were transferred to tissue culture medium with 10% FCS and then either warmed to 37° C. to allow internalization or maintained at 4° C. The internalization process was stopped after 15, 30, 60 or 120 minutes by transferring the cells into ice-cold buffer with 0.1% […]. Cells were stained with APC-conjugated goat anti-human Fab (Jackson Immuno) and analyzed by FACS. The residual levels of cell surface G2-2 was calculated based on the mean fluorescence intensity (MFI).
Background: In flow cytometry, cells or beads pass a laser one at a time.

In experiment [4] the target is T3, peptide AA 36-55 of GP73 (rGP73), SSRSVDLQTRIMELEGRVRR (human, biotinylated in the ELISAs (position not given)).
T3 construct: also called GP73 peptide; peptide rGP73 (GP73 AA 36 to 55)
T3 peptide: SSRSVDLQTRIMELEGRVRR
Description: SPR (Biacore), fit for 1:1 binding, mean of measurements 1 + 2, GP73 peptide. (In general: Surface plasmon resonance follows binding to a sensor surface in real time, without labels.)

Experiment [5] deals with T3, peptide AA 36-55 of GP73 (rGP73), …. Description: peptide ELISA on coated biotinylated rGP73 AA36-55, anti mouse HRP secondary. As for the experimental part:
ELISA was carried out in 96 well plates coated overnight with the biotinylated peptide gp73 AA 36-55 or an unrelated peptide and blocked with 2% gelatine. Antibodies 8A10, G2-2opti (IgG2a) or isotype control antibody (IgG2a) were applied, incubated for 1.5 hours and then washed away. A secondary horse radish peroxidase labeled anti mouse antibody was added for 1 hour and after extensive washing a chromogenic substrate (TMB Amersham) was applied to detect peroxidase.
(An ELISA detects its analyte on a solid surface through an enzyme-linked reagent.)

Experiment [6] concerns the target T4, sGP73-10×His, encompassing GP73 AA56 to 401 (human, UniProt Q8NBJ4 56-401).
T4 construct: also called sGP73-His; sGP73-HIS
T4 sequence: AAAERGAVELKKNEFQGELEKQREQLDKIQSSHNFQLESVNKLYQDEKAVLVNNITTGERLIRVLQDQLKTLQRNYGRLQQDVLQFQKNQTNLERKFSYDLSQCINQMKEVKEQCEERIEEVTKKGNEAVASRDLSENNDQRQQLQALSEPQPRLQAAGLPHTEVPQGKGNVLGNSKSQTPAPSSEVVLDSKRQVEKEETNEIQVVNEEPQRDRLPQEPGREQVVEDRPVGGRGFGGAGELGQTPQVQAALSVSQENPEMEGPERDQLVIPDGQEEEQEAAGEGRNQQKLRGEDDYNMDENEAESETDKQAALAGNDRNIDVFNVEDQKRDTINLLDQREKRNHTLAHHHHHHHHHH
Description: ELISA on coated sGP73-His, anti mouse HRP secondary. As to the method: (§1) ELISA was carried out in 96 well plates coated overnight with sGP73 or GP73 AVRR and blocked with 2% gelatine. Antibodies 8A10, G2-2opti (IgG2a) or isotype control antibody were applied, incubated for 1.5 hours and washed away. A secondary Horse radish peroxidase labeled anti mouse antibody was added for 1 hour and after extensive washing a chromogenic substrate (TMB Amersham) was applied to detect peroxidase.

For experiment [7], the target named is T5, GP73-10×His AVRR, encompassing GP73 AA36 to 401 with a R52A mutation (human, UniProt Q8NBJ4 36-401).
T5 construct: also called GP73 AVRR; GP73-His AVRR
T5 sequence: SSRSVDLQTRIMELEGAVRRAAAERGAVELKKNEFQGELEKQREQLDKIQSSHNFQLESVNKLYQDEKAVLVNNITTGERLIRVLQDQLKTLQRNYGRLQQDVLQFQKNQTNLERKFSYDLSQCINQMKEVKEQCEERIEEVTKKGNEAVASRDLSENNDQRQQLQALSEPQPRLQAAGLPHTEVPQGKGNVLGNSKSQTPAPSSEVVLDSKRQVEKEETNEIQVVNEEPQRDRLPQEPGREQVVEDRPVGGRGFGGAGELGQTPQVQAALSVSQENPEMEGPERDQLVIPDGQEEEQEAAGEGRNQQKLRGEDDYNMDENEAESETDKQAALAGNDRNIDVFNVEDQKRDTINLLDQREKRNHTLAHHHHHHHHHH
Description: ELISA on coated GP73-His AVRR, anti mouse HRP secondary. As for the experimental part: as §1

In experiment [8] the target is T1, GP73 (endogenous human GP73 on HEK 293, …). Description: flow cytometry, surface staining of HEK 293 cells, axis anti-mouse APC. As for the experimental part:
Detection of surface staining of cells is depicted as continuous line, only secondary antibody control detection is depicted as dashed line as described in Example 4.
Different human and murine cell lines e.g. HuH7, JHH4, HEK293, HEK293-GP73-myc and Ramos were tested by Flow cytometry analysis for expression of GP73 on their cell surface and binding of G2-2, G2-1 and G2-4. […]

B1: mG2-2 (G2-2 variable regions with murine IgG2a heavy chain and human Igk light chain constant regions) (antibody)
heavy: EVQLLQSGGGVVQPGRSLRLSCAASGFTFSSYGMSWVRQAPGKGLEWVAVISYDGSNKYYADSVKGRFTISRDNSKNTLYLQMNSLRAEDTAVYYCAREGSAGMDVWGQGTTVTVSSASTTAPSVYPLAPVCGDTTGSSVTLGCLVKGYFPEPVTLTWNSGSLSSGVHTFPAVLQSDLYTLSSSVTVTSSTWPSQSITCNVAHPASSTKVDKKIEPRGPTIKPCPPCKCPAPNLLGGPSVFIFPPKIKDVLMISLSPIVTCVVVDVSEDDPDVQISWFVNNVEVHTAQTQTHREDYNSTLRVVSALPIQHQDWMSGKEFKCKVNNKDLPAPIERTISKPKGSVRAPQVYVLPPPEEEMTKKQVTLTCMVTDFMPEDIYVEWTNNGKTELNYKNTEPVLDSDGSYFMYSKLRVEKKNWVERNSYSCSVVHEGLHNHHTTKSFSRTPGK
light: DIQMTQPSSLSASPGASASLTCTLRSDISVGFHRIYWYQQKPGSPPQYLLRYKSDSDKQQGSGVPSRFSGSKDASANAGILLISGLQSDDEADYYCVIWHTSGVVFGGGTKVEIKRTVAAPSVFIFPPSDEQLKSGTASVVCLLNNFYPREAKVQWKVDNALQSGNSQESVTEQDSKDSTYSLSSTLTLSKADYEKHKVYACEVTHQGLSSPVTKSFNRGEC
notes: also called murine G2-2
On to B1, for which the binding result in experiment [1] and in experiment [2] was “binds” in each case.

B2: G2-2 (human IgG1 heavy chain and human Igk light chain constant regions) (antibody)
heavy: not shown
light: B1 light
notes: scFv clone from a human scFv library, cloned as human IgG1/kappa; also called G2-2-HRP (horse radish peroxidase labeled); anti-rGOLPH antibody G2-2
B2: the binding result in experiment [3] was “binds”. Also, in experiment [4], the Kd (usually the equilibrium constant for the complex coming apart) worked out at 4.29 nM; the koff – broadly, a measure of how fast the partners let go of each other – turned out to be 0.00111 s⁻¹; the kon (usually a measure of how fast the partners come together) was found to be 260000 M⁻¹ s⁻¹.

B3: G2-2opti (IgG2a) (antibody, V domains shown)
VH: QVQLVQSGGGVVQPGRSLRLSCAASGFTFSSYGMHWVRQAPGKGLEWVAVISYDGSNKYYADSVKGRFTISRDNSKNTLYLQMNSLRAEDTAVYYCAREGSAGMDVWGQGTTVTVSS
VL: QAVLTQPSSLSASPGASASLTCTLRSDISVGFHRIYWYQQKPGSPPQYLLRYKSDSDKQQGSGVPSRFSGSKDASANAGILLISGLQSDDEADYYCVIWHTSGVVFGGGTKLTVL
notes: 'a chimeric human/murine version with a murine CH2 and CH2'
For the molecule B3, the binding result is “binds” in experiment [5], “no binding (tested: 5.0 ug/ml)” in experiment [6] and “binds” in experiment [7].

B4: G2-1 (human IgG1 heavy chain and human Igk light chain constant regions) (antibody, V domains shown)
VH: EVQLLESGGGVVQPGRSLRLSCAASGFTFSSYAMSWVRQAPGKGLEWVSVISYDGSNKAYADSVKGRFTISRDNSKNTLYLQMNSLRAEDTAVYYCARGRSYYDSSGYLFDYWGQGTLVTVSS
VL: DIQMTQPHSVSESVGKTVIITCTGGGGSIDTNYVQWYQQRPGSAPVTLIYEDDQRPFGVPDRFSAAIDTSSSSASLTISGLTAEDEATYYCQSSHSTAVVFGGGTKVEIKR
notes: scFv clone from a human scFv library, cloned as human IgG1/kappa; also called G2-1-HRP (horse radish peroxidase labeled)
Regarding B4, in experiment [4], the equilibrium dissociation constant (Kd) stood at 3.02 nM, the koff was 0.00198 s⁻¹ and the kon was 635000 M⁻¹ s⁻¹.

B5: G2-4 (antibody, V domains shown)
VH: QVQLEESGGGLVQPGGSLRLSCATSGFTFTDYYMSWVRQPPGKALEWLGFIRNKAKGYTTEYSASVKGRFTISRDNSQSILYLQMNTLRAEDSATYYCARDPSTNYWYFDVWGAGTTVTVSS
VL: DIVLTQSPSSLAVSAGEKVTMTCKSSQSLLNSRTRKNYLAWYQQKPGQSPKLLIYWASTRESGVPDRFTGSGSGTDFTLTISSVQAEDLAVYYCKQSYNLYTFGGGTKLEIKR
On to B5, for which the binding result in experiment [8] is recorded as “binds”.
